The numbers were not newly measured in PMC12634839, which cites them from elsewhere.

The target in this series is FAM19A5 (Homo sapiens) (UniProt Q7Z5A7). Nature of the series: SPR.
Chain of UniProt Q7Z5A7 (Q7Z5A7 44-132): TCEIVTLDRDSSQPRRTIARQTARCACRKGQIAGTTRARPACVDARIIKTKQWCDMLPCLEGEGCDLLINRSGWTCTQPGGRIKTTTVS

As to LRRC4B 453-576 (from UniProt Q9NT99), the Kd is 0.032 nM.
